Columns and labels:
[1] = molecular target: T1, Recombinant Human ErbB2/HER2 Fc Chimera; R&D Systems; Cat. No. 1129-ER (human, UniProt P04626 23-652); test: HER2 biochemical ELISA, coated HER2 Fc chimera (Example 3)
T1 construct: Bought reagent; also called human Her2; HER2-HIS-tag; not shown: not described

FcγRIIIa receptor, V158 = FcγRIIIa receptor, V158 (human, UniProt P08637 17-254); test: cell-based or functional assay
HER2 on SK-BR-3 cells = molecular target: T2, HER2 on SK-BR-3 cells (human, UniProt P04626 23-1255); test: cell binding to SK-BR-3, high content imaging (Example 4)
T2 construct: whole, on cells

Sequence of FcγRIIIa receptor, V158 (P08637 17-254 F176V): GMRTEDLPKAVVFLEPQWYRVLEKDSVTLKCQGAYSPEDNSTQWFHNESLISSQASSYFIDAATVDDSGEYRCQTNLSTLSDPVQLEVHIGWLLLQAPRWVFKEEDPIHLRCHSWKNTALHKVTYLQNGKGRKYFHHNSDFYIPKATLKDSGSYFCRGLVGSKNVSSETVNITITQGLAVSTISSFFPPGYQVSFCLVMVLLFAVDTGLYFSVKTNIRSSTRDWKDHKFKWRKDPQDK

EC50 [1]: 0.0052 µg/mL
EC50 of FcR signaling (FcγRIIIa receptor, V158): 0.052 µg/mL
stimulation of FcR signaling (FcγRIIIa receptor, V158): 132 fold
EC50 (HER2 on SK-BR-3 cells): 0.078 µg/mL
B1: MABD B100 (antibody)
heavy: not shown
light: DIVMTQTPASVSEPVGGTVTIKCQASQGISTALAWYQQKPGQRPKLLIYSASTLASGVSSRFKGSGSGTQFTLTISDLECADAATYYCQCTAAGSVSVGAFGGGTEVVVNRTVAAPSVFIFPPSDEQLKSGTASVVCLLNNFYPREAKVQWKVDNALQSGNSQESVTEQDSKDSTYSLSSTLTLSKADYEKHKVYACEVTHQGLSSPVTKSFNRGEC

Source: patent US20190241674A1 (MAB DISCOVERY, published 2019)
